Experimental data taken from PMC10397247.
Each block holds one binder with its values, some of them ahead of it.

Legend:
[1] = molecular target: T1, 4H683-bH; assay: two-hybrid library CCNG1;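 also: natural log of median RNA to DNA barcode read ratio; higher means stronger binding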
T1 chain: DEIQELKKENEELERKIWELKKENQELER

[2] = molecular target: T2, 4H754-bH; assay: two-hybrid library CCNG1;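 also: natural log of median RNA to DNA barcode read ratio; higher means stronger binding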
T2 chain: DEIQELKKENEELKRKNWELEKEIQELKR

[3] = molecular target: T3, 4H780-bH; assay: two-hybrid library CCNG1;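 also: natural log of median RNA to DNA barcode read ratio; higher means stronger binding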
T3 chain: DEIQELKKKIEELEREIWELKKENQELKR

[4] = molecular target: T4, 4H797-bH; assay: two-hybrid library CCNG1;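 also: natural log of median RNA to DNA barcode read ratio; higher means stronger binding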
T4 chain: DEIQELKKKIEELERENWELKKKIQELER

[5] = molecular target: T5, 4H855-bH; assay: two-hybrid library CCNG1;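 also: natural log of median RNA to DNA barcode read ratio; higher means stronger binding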
T5 chain: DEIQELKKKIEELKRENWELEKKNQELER

[6] = molecular target: T6, 4H918-bH; assay: two-hybrid library CCNG1;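 also: natural log of median RNA to DNA barcode read ratio; higher means stronger binding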
T6 chain: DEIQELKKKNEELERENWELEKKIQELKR

[7] = molecular target: T7, 4H949-bH; assay: two-hybrid library CCNG1
T7 chain: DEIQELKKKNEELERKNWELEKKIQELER

[8] = molecular target: T8, 4H953-bH; assay: two-hybrid library CCNG1
T8 chain: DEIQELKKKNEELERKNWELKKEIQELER

[9] = molecular target: T9, 4H968-bH; assay: two-hybrid library CCNG1
T9 chain: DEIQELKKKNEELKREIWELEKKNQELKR

[10] = molecular target: T10, 4H626-bA; assay: two-hybrid library CCNG1
T10 chain: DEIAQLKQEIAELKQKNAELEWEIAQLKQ

[11] = molecular target: T11, 4H906-bA; assay: two-hybrid library CCNG1
T11 chain: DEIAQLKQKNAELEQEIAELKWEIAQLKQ

[12] = molecular target: T12, 4H584-bH; assay: two-hybrid library CCNG1
T12 chain: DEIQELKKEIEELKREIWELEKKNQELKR

[13] = molecular target: T13, 4H619-bH; assay: two-hybrid library CCNG1
T13 chain: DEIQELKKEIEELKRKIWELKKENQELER

[14] = molecular target: T14, 4H850-bH; assay: two-hybrid library CCNG1
T14 chain: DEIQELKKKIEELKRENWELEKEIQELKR

[15] = molecular target: T15, 4H906-bH; assay: two-hybrid library CCNG1
T15 chain: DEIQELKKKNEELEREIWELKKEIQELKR

[16] = molecular target: T16, 4H683-bN; assay: two-hybrid library CCNG1
T16 chain: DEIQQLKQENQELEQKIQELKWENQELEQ

[17] = molecular target: T17, 4H754-bN; assay: two-hybrid library CCNG1
T17 chain: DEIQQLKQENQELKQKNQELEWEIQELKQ

[18] = molecular target: T18, 4H780-bN; assay: two-hybrid library CCNG1
T18 chain: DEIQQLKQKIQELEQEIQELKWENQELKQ

[19] = molecular target: T19, 4H797-bN; assay: two-hybrid library CCNG1
T19 chain: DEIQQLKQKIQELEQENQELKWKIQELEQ

[20] = molecular target: T20, 4H855-bN; assay: two-hybrid library CCNG1
T20 chain: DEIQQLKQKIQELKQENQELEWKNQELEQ

[21] = molecular target: T21, 4H918-bN; assay: two-hybrid library CCNG1
T21 chain: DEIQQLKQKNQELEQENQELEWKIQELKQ

[22] = molecular target: T22, 4H953-bN; assay: two-hybrid library CCNG1
T22 chain: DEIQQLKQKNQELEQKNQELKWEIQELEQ

[23] = molecular target: T23, 4H968-bN; assay: two-hybrid library CCNG1
T23 chain: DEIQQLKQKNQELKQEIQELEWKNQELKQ

[24] = molecular target: T24, 4H43-AA; assay: two-hybrid library CCmax
T24 chain: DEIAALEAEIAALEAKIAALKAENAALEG

[25] = molecular target: T25, 4H451-AA; assay: two-hybrid library CCmax; settings: mean of both orientations
T25 chain: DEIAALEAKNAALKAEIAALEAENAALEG

[26] = molecular target: T26, 4H510-AA; assay: two-hybrid library CCmax; settings: mean of both orientations
T26 chain: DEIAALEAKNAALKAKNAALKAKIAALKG

[27] = molecular target: T27, 4H_APH; assay: two-hybrid library CCmax; settings: mean of both orientations
T27 chain: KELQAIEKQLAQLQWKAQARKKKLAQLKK

[28] = molecular target: T28, 4H_BCR; assay: two-hybrid library CCmax; settings: mean of both orientations
T28 chain: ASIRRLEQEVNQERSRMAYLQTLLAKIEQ

[29] = molecular target: GCN2_T; assay: two-hybrid library CCmax
[30] = molecular target: T29, O11-AA; assay: two-hybrid library CCmax; settings: mean of both orientations
T29 chain: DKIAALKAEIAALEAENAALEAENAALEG

[31] = molecular target: T30, O13-AA; assay: two-hybrid library CCmax; settings: mean of both orientations
T30 chain: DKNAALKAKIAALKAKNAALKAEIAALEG

[32] = molecular target: T31, O14-AA; assay: two-hybrid library CCmax; settings: mean of both orientations
T31 chain: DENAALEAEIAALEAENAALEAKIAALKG

[33] = molecular target: T32, 4H477-bA; assay: two-hybrid library CCNG1
T32 chain: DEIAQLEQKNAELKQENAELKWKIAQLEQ

[34] = molecular target: T33, 4H492-bA; assay: two-hybrid library CCNG1
T33 chain: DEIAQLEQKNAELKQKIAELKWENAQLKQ

[35] = molecular target: T34, 4H72-bN; assay: two-hybrid library CCNG1
T34 chain: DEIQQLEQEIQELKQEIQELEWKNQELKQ

[36] = molecular target: T35, 4H741-bA; assay: two-hybrid library CCNG1
T35 chain: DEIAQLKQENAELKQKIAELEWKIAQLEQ

[37] = molecular target: T36, 4H3066-AA; assay: two-hybrid library CCmax
T36 chain: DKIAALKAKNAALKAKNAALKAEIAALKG

[38] = molecular target: T37, 4H3102-AA; assay: two-hybrid library CCmax; settings: mean of both orientations
T37 chain: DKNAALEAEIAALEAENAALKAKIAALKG

[39] = molecular target: T38, 4H3121-AA; assay: two-hybrid library CCmax; settings: mean of both orientations
T38 chain: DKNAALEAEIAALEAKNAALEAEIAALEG

[40] = molecular target: T39, 4H3417-AA; assay: two-hybrid library CCmax; settings: mean of both orientations
T39 chain: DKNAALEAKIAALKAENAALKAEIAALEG

[41] = molecular target: T40, 4H3446-AA; assay: two-hybrid library CCmax; settings: mean of both orientations
T40 chain: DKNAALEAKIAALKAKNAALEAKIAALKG

[42] = molecular target: T41, 4H3591-AA; assay: two-hybrid library CCmax; settings: mean of both orientations
T41 chain: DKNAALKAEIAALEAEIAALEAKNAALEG

[43] = molecular target: T42, 4H3628-AA; assay: two-hybrid library CCmax; settings: mean of both orientations
T42 chain: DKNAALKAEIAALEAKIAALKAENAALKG

[44] = molecular target: T43, 4H3666-AA; assay: two-hybrid library CCmax; settings: mean of both orientations
T43 chain: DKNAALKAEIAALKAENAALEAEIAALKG

[45] = molecular target: T44, 4H3709-AA; assay: two-hybrid library CCmax; settings: mean of both orientations
T44 chain: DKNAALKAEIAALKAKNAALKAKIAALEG

[46] = molecular target: T45, 4H391-AA; assay: two-hybrid library CCmax; settings: mean of both orientations
T45 chain: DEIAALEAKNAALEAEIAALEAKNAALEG

[47] = molecular target: T46, 4H3920-AA; assay: two-hybrid library CCmax; settings: mean of both orientations
T46 chain: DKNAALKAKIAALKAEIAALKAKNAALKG

[48] = molecular target: T47, 4H3939-AA; assay: two-hybrid library CCmax; settings: mean of both orientations
T47 chain: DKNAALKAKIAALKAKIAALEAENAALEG

[49] = molecular target: T48, 4H428-AA; assay: two-hybrid library CCmax; settings: mean of both orientations
T48 chain: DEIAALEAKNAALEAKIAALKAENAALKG

[50] = molecular target: T49, 4H478-AA; assay: two-hybrid library CCmax; settings: mean of both orientations
T49 chain: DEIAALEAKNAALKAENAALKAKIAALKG

[51] = molecular target: T50, 4H497-AA; assay: two-hybrid library CCmax; settings: mean of both orientations
T50 chain: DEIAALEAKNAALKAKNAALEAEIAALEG

[52] = molecular target: T51, 4H656-AA; assay: two-hybrid library CCmax; settings: mean of both orientations
T51 chain: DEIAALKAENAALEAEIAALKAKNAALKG

[53] = molecular target: T52, 4H675-AA; assay: two-hybrid library CCmax; settings: mean of both orientations
T52 chain: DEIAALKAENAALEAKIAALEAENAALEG

[54] = molecular target: T53, 4H971-AA; assay: two-hybrid library CCmax; settings: mean of both orientations
T53 chain: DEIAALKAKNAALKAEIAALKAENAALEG

[55] = molecular target: T54, 4H967-AA; assay: two-hybrid library CCmax
T54 chain: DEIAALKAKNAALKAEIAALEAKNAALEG

[56] = molecular target: T55, 4H575-bH; assay: two-hybrid library CCNG1
T55 chain: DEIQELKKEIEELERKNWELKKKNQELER

[57] = molecular target: T56, 4H626-bH; assay: two-hybrid library CCNG1
T56 chain: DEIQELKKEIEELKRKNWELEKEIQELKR

[58] = molecular target: T57, 4H570-bH; assay: two-hybrid library CCNG1
T57 chain: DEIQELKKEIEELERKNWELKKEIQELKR

[59] = molecular target: T58, 4H3974-bH; assay: two-hybrid library CCNG1
T58 chain: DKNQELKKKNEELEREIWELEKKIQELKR

B3: 4H584-bH (peptide)
chain: DEIQELKKEIEELKREIWELEKKNQELKR
- interaction score [12]: 1.18
- interaction score [13]: 1.2
- interaction score [14]: 0.297
- interaction score [15]: 0.202

B4: 4H683-bN (peptide)
chain: DEIQQLKQENQELEQKIQELKWENQELEQ
- interaction score [16]: -0.0866
- interaction score [17]: -1.46
- interaction score [18]: -0.606
- interaction score [19]: 0.0127
- interaction score [20]: -0.411
- interaction score [21]: -0.318
- interaction score [22]: -0.218
- interaction score [23]: 1.51

B5: 4H43-AA (peptide)
chain: DEIAALEAEIAALEAKIAALKAENAALEG
- interaction score [24]: 1.54
- interaction score [25]: -1.31
- interaction score [26]: -0.823
- interaction score [27]: -0.887
- interaction score [28]: -1.44
- interaction score [29]: -1.41
- interaction score [30]: -0.943
- interaction score [31]: 0.246
- interaction score [32]: -0.845

B6: 4H477-bA (peptide)
chain: DEIAQLEQKNAELKQENAELKWKIAQLEQ
- interaction score [33]: -0.249
- interaction score [34]: -0.749
- interaction score [35]: -3.66
- interaction score [36]: -1.37

B7: 4H3066-AA (peptide)
chain: DKIAALKAKNAALKAKNAALKAEIAALKG
- interaction score [37]: -0.506
- interaction score [38]: 0.0998
- interaction score [39]: -0.941
- interaction score [40]: -2.18
- interaction score [41]: -1.7
- interaction score [42]: -1.59
- interaction score [43]: -1.85
- interaction score [44]: 0.0105
- interaction score [45]: -1.94
- interaction score [46]: -1.09
- interaction score [47]: -1.87
- interaction score [48]: -2.16
- interaction score [49]: -1.26
- interaction score [50]: 1.25
- interaction score [51]: -0.971
- interaction score [52]: 0.231
- interaction score [53]: -1.19
- interaction score [54]: -1.81

B10: 4H626-bH (peptide)
chain: DEIQELKKEIEELKRKNWELEKEIQELKR
- interaction score [57]: 0.932
- interaction score [15]: -0.349

B12: 4H3974-bH (peptide)
chain: DKNQELKKKNEELEREIWELEKKIQELKR
- interaction score [59]: -0.338
- interaction score [58]: -0.965
- interaction score [12]: -0.203
- interaction score [13]: -0.167
- interaction score [14]: -0.0332
- interaction score [15]: -0.332

Second part, the binder after the results:

- interaction score [1]: 0.562
- interaction score [2]: -0.187
- interaction score [3]: -0.661
- interaction score [4]: -0.161
- interaction score [5]: -0.174
- interaction score [6]: -1.01
- interaction score [7]: -0.385
- interaction score [8]: -1.23
- interaction score [9]: 1.12
B1: 4H683-bH (peptide)
chain: DEIQELKKENEELERKIWELKKENQELER

- interaction score [10]: 0.86
- interaction score [11]: -1.23
B2: 4H626-bA (peptide)
chain: DEIAQLKQEIAELKQKNAELEWEIAQLKQ

- interaction score [55]: -0.481
B8: 4H967-AA (peptide)
chain: DEIAALKAKNAALKAEIAALEAKNAALEG

- interaction score [56]: -0.14
- interaction score [1]: -0.243
- interaction score [2]: -0.631
- interaction score [3]: -0.754
- interaction score [4]: -0.434
- interaction score [5]: 1.37
- interaction score [6]: -0.438
- interaction score [8]: -0.118
- interaction score [9]: -1.01
B9: 4H575-bH (peptide)
chain: DEIQELKKEIEELERKNWELKKKNQELER

- interaction score [58]: 1.19
- interaction score [12]: -1.16
- interaction score [13]: -0.75
- interaction score [14]: 1.01
- interaction score [15]: 0.224
B11: 4H570-bH (peptide)
chain: DEIQELKKEIEELERKNWELKKEIQELKR
